{
  "source": "patent US20220002363A1",
  "about": "“COMPOSITIONS AND METHODS FOR TREATING PULMONARY DISEASE” (United States Government As Represented By The Department …, priority 2020, published 2022)",
  "key": {"[1]": {"molecular_target": "T1, recombinant human soluble Fas (Homo sapiens, UniProt P25445)", "T1 construct": "recombinant human soluble Fas receptors (PeproTech, Rocky Hill, N.J.); purchased PeproTech", "T1 sequence (P25445 26-173 limits assumed)": "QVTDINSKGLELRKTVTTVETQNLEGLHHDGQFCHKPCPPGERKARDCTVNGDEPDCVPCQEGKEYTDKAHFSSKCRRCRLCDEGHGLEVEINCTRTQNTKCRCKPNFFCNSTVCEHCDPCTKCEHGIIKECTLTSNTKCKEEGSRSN", "experiment": "Fas-FasL binding assay on wells coated with recombinant human soluble Fas", "details": "recombinant human Fas 5 μg/mL, detection with polyclonal anti-FasL antibodies", "procedure": "The mixtures were incubated for 2 hours in 96-well plates pre-coated with recombinant hsFas (250 ng/ml). After washing unbound material, biotin was detected using HRP conjugated Streptavidin. […] The sFasL bound to Fas was detected using polyclonal anti-human FasL antibodies. […] Different molar ratios of the Fas-activating antibody CH-11 and mut-sFasL were added, and caspase 3/7 activity measured after 5 hours. […] Data represent the results from three separate experiments, each done in duplicate, and were analyzed by 2-way ANOVA with Sidak's post hoc analysis. […] Each dot represents individual data; lines represent means±SD. *=P<0.05; **=P<0.01, ***P<0.001.\nAntibodies and Reagents. […] FLAG tagged mut-sFasL was detected using HRP anti-FLAG monoclonal antibody (Sigma-Aldrich, Cat #A85920). […]\nWT-sFasL inhibition occurs prior to receptor binding. […] Recombinant human Fas at 250 ng/mL were coated and the binding of a fixed concentration of biotinylated WT-sFasL (70 ng/mL) were measured in the presence of serial 3-fold dilutions of either WT-sFasL or mut-sFasL. […] Serial dilutions of either WT-sFasL or mut-sFasL were incubated in wells coated with recombinant human Fas, 5 μg/mL, and after washing, detected sFasL bound to Fas using polyclonal anti-FasL antibodies. […]"}, "WT-sFasL [2]": {"molecular_target": "T2, WT-sFasL (Homo sapiens, UniProt P48023)", "T2 construct": "made in house", "T2 sequence (P48023 103-281)": "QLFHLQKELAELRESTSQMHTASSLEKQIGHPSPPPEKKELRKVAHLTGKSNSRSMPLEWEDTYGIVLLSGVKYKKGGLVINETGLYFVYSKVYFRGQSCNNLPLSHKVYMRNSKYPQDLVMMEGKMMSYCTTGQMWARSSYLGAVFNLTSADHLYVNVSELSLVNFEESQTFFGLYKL", "experiment": "Annexin-V externalization (translocation) assay in SAEC with WT:mut sFasL mixtures", "assay_type": "cell-based", "details": "WT:mut sFasL molar ratios of 1:27 and 1:81", "procedure": "FIGS. 2A-D show the mut-sFasL has inhibitory properties. Highly Fas-sensitive Jurkat cells (FIG. 2A), primary human lung small airway epithelial cells (SAEC, FIG. 2B) or murine lung epithelial cells (LA4, FIG. 2D) were incubated with serial dilutions of mutated FasL, (mut sFasL). […] As a confirmatory test, the experiment was repeated using SAEC and an annexin-V translocation assay (FIG. 2C). WT=wild type (no mutant). […] Each dot represents individual data; lines represent means±SD. *=P<0.05; **=P<0.01, ***P<0.001 when compared to WT. One way ANOVA with SIdak's post hoc analysis. […]\n(§1) Measurements of apoptotic cascade activation. Apoptotic cascade activation was assessed by determining caspase 3/7 activity and Annexin V externalization. Caspase-3/7 activity was measured using a commercial substrate (Caspase-Glo 3/7 Assay, Promega, Madison, Wis., Cat #G8090) following manufacturer's instructions. Annexin V was measured with a luminescent commercial assay that allows for measurement of annexin V externalization in adherent cells (RealTime-Glo Annexin V assay, Promega, Madison, Wis., Cat #JA1011). Luminescence was measured with a Synergy H4 Microplate Reader (BioTek, Winooski, Vt.). […]"}, "WT-sFasL [3]": {"molecular_target": "T2, WT-sFasL", "experiment": "Attenuation of WT-sFasL-induced caspase 3/7 activity in Jurkat cells by molar mixtures of WT and mut-sFasL", "assay_type": "cell-based", "details": "serial dilutions of mut sFasL", "procedure": "(§2) FIGS. 2A-D show the mut-sFasL has inhibitory properties. Highly Fas-sensitive Jurkat cells (FIG. 2A), primary human lung small airway epithelial cells (SAEC, FIG. 2B) or murine lung epithelial cells (LA4, FIG. 2D) were incubated with serial dilutions of mutated FasL, (mut sFasL). […] As a confirmatory test, the experiment was repeated using SAEC and an annexin-V translocation assay (FIG. 2C). WT=wild type (no mutant). […] Each dot represents individual data; lines represent means±SD. *=P<0.05; **=P<0.01, ***P<0.001 when compared to WT. One way ANOVA with SIdak's post hoc analysis.\nMethods. Cells and cell culture. To test Fas responses in vitro, the highly-Fas sensitive cell line, Jurak, was used. […]\nas §1"}, "WT-sFasL [4]": {"molecular_target": "T2, WT-sFasL", "experiment": "Attenuation of WT-sFasL-induced caspase 3/7 activity in primary human small airway epithelial cells (SAEC)", "assay_type": "cell-based", "details": "for inhibitory effect on ability of WT-sFasL to induce caspase 3-7 activity: at higher molar ratios than in Jurkat", "procedure": "as §2\nSmall airway epithelial cells (SAEC) are primary human cells isolated from the 1-mm bronchiole area of normal human lung tissue, and were purchased from Lonza (Walkersville, Md., catalogue number CC-2547, lot number 0000669507). Cells used came from a single donor and confirmed mycoplasma-free by the vendor. Cells were grown at 37° C., 5% CO2 in small airway epithelial basal medium (SAGM, Lonza, Cat #CC-3119 CC-3119) supplemented with SAGM SingleQuots (Lonza, catalogue number CC-4124), and used between passages 2 and 4.\nMeasurements of apoptotic cascade activation. Apoptotic cascade activation was assessed by determining caspase 3/7 activity and Annexin V externalization. Caspase-3/7 activity was measured using a commercial substrate (Caspase-Glo 3/7 Assay, Promega, Madison, Wis., Cat #G8090) following manufacturer's instructions. Annexin V was measured with a luminescent commercial assay that allows for measurement of annexin V externalization in adherent cells (RealTime-Glo Annexin V assay, Promega, Madison, Wis., Cat #JA1011). Luminescence was measured with a Synergy H4 Microplate Reader (BioTek, Winooski, Vt.).\nThe mut-sFasL attenuates the activity of WT-sFasL. Then, the caspase 3/7 activity of Jurkat cells incubated with different molar ratios of WT and mut-sFasL was investigated. […] The molar mixtures on primary human small airway epithelial cells (SAEC) were tested. These cells are commercially isolated from the distal airways of human lungs. […]"}},
  "data": [
    {"molecule": "mut-sFasL: mutant sFasL molecule in which 8 charged amino acids in the 26 amino acid stalk region were changed to alanine (protein) QLFALQAALAALAASTSQMATASSLAKQIGHPSPPPEKKELRKVAHLTGKSNSRSMPLEWEDTYGIVLLSGVKYKKGGLVINETGLYFVYSKVYFRGQSCNNLPLSHKVYMRNSKYPQDLVMMEGKMMSYCTTGQMWARSSYLGAVFNLTSADHLYVNVSELSLVNFEESQTFFGLYKL", "values": [
      {"measurement": "binding curve to immobilized Fas relative to WT-sFasL", "setting": "[1]", "result": "shifted to the right, indicating decreased binding ability for Fas"},
      {"measurement": "binding curve to immobilized Fas relative to WT-sFasL", "setting": "[1]; listed as mut sFasL", "result": "shifted to the left"},
      {"measurement": "Annexin V translocation", "setting": "WT-sFasL [2]", "result": "significantly reduced"},
      {"measurement": "inhibition of wild type sFasL activity (caspase 3/7)", "setting": "WT-sFasL [3]", "result": "dose-dependent inhibition of wild type sFasL activity"},
      {"measurement": "caspase 3/7 activity", "setting": "WT-sFasL [4]; WT:mut sFasL molar ratios of 1:27 and 1:81", "result": "significantly reduced caspase 3/7 activity"},
      {"measurement": "inhibitory effect on ability of WT-sFasL to induce caspase 3-7 activity", "setting": "WT-sFasL [4]", "result": "inhibitory effect"},
      {"measurement": "inhibitory effect on ability of WT-sFasL to induce caspase 3-7 activity", "setting": "WT-sFasL [4]; listed as 8-mutant protein", "result": "an inhibitory effect of the 8-mutant protein was detected"}
    ]}
  ]
}
